Experimental findings from the supplement of paper PMC7125110 are described below.

Sequences and labels used below:
B1: glmS ribozyme (parent)
chain: AUAAAAGCGCCAGAACUACAGAAAUGUAGUUGACGAGGAGGAGGUUUAUCGAAUUUUCGGCGGAUGCCUCCAAA

± gives the standard error. For some assays here: Fewer inactive variants are shown than the library holds.

Common to all, as to settings: with glucosamine-6-phosphate
The variants in data set [1] derive from B1. The experiment in a line: kcat; higher = faster cleavage; RNA array. In a few lines: (§1)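 Tiles of sequenced MiSeq chips were imaged over ~14 h at 37 °C. On them, barcoded ribozyme variants had been transcribed in situ by E. coli RNA polymerase and were tracked via a hybridised Cy3 probe while glucosamine-6-phosphate (40 μM to 10 mM) in HEPES/KCl/Mg(OAc)2 buffer flowed in. Per-tile medians, normalised to baseline and to non-cleaving reference variants, were fit to one- or two-exponential decays for kobs, and weighted Michaelis–Menten fits gave kcat and KM.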

In data set [2] the parent is B1. The experiment in a line: self-cleavage kobs at 640 uM GlcN6P; higher = faster cleavage; RNA array. In a few lines:
as §1

Variants of B1 are the subject of data set [3]. The experiment in a line: self-cleavage kobs at 2500 uM GlcN6P; higher = faster cleavage; RNA array. In short, it runs like this: as §1
Variants of B1 are the subject of data set [4]. The experiment in a line: self-cleavage kobs at 10000 uM GlcN6P; higher = faster cleavage; RNA array. In short, it runs like this:
as §1

Variants of B1 are the subject of data set [5]. The experiment in a line: self-cleavage kobs at 40 uM GlcN6P; higher = faster cleavage; RNA array. In a few lines: as §1
In data set [6] the parent is B1. The experiment in a line: self-cleavage kobs at 160 uM GlcN6P; higher = faster cleavage; RNA array. In short, it runs like this: as §1
In data set [7] the parent is B1. The experiment in a line: KM; higher = weaker cofactor use; RNA array. In short, it runs like this: as §1

As a reminder, the kcat is the number of substrate molecules converted per active site and unit of time at saturation. For the variant AUAAAAGCGCCAGAACUACAGAAAUGUAGUUAACGAGGAGGAGGUUUAUCGAAUUUUCGGCGGAUGCCUACAAA, in the data set with glucosamine-6-phosphate [1], the kcat amounted to 7.22e-05 ± 1.4e-05 s⁻¹. For the same variant, the “self-cleavage kobs at 640 uM GlcN6P” value with glucosamine-6-phosphate [2] is 8.06e-05 ± 1.2e-05 s⁻¹. In the data set with glucosamine-6-phosphate [3], the “self-cleavage kobs at 2500 uM GlcN6P” value amounted to 8.73e-05 ± 8.9e-06 s⁻¹. In addition, the “self-cleavage kobs at 10000 uM GlcN6P” value in the data set with glucosamine-6-phosphate [4] was found to be 5.13e-05 ± 8.6e-06 s⁻¹.

Take AUAAAUGCGCCAGAACUACAGAAAUGUAGUUAACGAGGAGGAGGUUUAUCGAAUUUUCGGCGGAUGCCUCCAAA: the turnover number (kcat) with glucosamine-6-phosphate [1] is < 1e-05 s⁻¹. Also, the “self-cleavage kobs at 40 uM GlcN6P” value with glucosamine-6-phosphate [5] was < 1e-05 s⁻¹. Besides, the “self-cleavage kobs at 160 uM GlcN6P” value in the data set with glucosamine-6-phosphate [6] is < 1e-05 s⁻¹.

By KM is commonly meant the substrate concentration at which the rate is half of its maximum. Take AUAAAAGCGCCAGAACUACAGAAAUGUAGUUGACGAAGAGGAGGUUUAUCGAAUUUUCGGCGGAUGCCUCAAAA: in the data set with glucosamine-6-phosphate [1], the kcat worked out at 0.000462 ± 4.6e-05 s⁻¹. Also, in the data set with glucosamine-6-phosphate [7], the KM is 1520 ± 410 µM. Further, in the data set with glucosamine-6-phosphate [6], the “self-cleavage kobs at 160 uM GlcN6P” value came out at 5.16e-05 ± 2e-05 s⁻¹. In addition, the “self-cleavage kobs at 640 uM GlcN6P” value in the data set with glucosamine-6-phosphate [2] worked out at 0.000114 ± 2.7e-05 s⁻¹. Moreover, in the data set with glucosamine-6-phosphate [3], the “self-cleavage kobs at 2500 uM GlcN6P” value is 0.000331 ± 4.6e-05 s⁻¹. For the same variant, the “self-cleavage kobs at 10000 uM GlcN6P” value with glucosamine-6-phosphate [4] was found to be 0.000391 ± 3.8e-05 s⁻¹.

Regarding AUAAAAGCGCCAGAACUACAGAAAUGUAGUUGACGAGGAGGAGGUUUAUCGAAAUUUCAGCGGAUGCCUCCAAA, the kcat with glucosamine-6-phosphate [1] is 6.69e-05 ± 7.1e-06 s⁻¹. The KM in the data set with glucosamine-6-phosphate [7] was 4220 ± 1300 µM. Moreover, in the data set with glucosamine-6-phosphate [4], the “self-cleavage kobs at 10000 uM GlcN6P” value was determined as 4.72e-05 ± 7.4e-06 s⁻¹.

In the case of AUAAAAGCGCCAGAACUACAGAAAUGUAGUUGACGAGGAGGAGGUAUAUCGAAUUUUCGGCGGAUACCUCCAAA, the kcat in the data set with glucosamine-6-phosphate [1] was 0.000792 ± 5.9e-05 s⁻¹. The KM with glucosamine-6-phosphate [7] came out at 2830 ± 440 µM. For the same variant, the “self-cleavage kobs at 640 uM GlcN6P” value with glucosamine-6-phosphate [2] amounted to 0.000156 ± 3.3e-05 s⁻¹. Also, the “self-cleavage kobs at 2500 uM GlcN6P” value with glucosamine-6-phosphate [3] was 0.000321 ± 8.6e-05 s⁻¹. The “self-cleavage kobs at 10000 uM GlcN6P” value with glucosamine-6-phosphate [4] is 0.00063 ± 7.9e-05 s⁻¹.

With AUAAAAGCGCCAGGACUACAGAAAUGUAGUUGACGAGGAGGAGGGUUAUCGAAUUUUCGGCGGAUGCCUCCAAA, the kcat in the data set with glucosamine-6-phosphate [1] stood at 0.0225 ± 0.0076 s⁻¹. Moreover, the KM with glucosamine-6-phosphate [7] was determined as 3450 ± 1400 µM. Besides, the “self-cleavage kobs at 40 uM GlcN6P” value with glucosamine-6-phosphate [5] was 0.000286 ± 0.0001 s⁻¹. The “self-cleavage kobs at 160 uM GlcN6P” value in the data set with glucosamine-6-phosphate [6] was 0.000908 ± 0.00024 s⁻¹. Further, in the data set with glucosamine-6-phosphate [2], the “self-cleavage kobs at 640 uM GlcN6P” value is 0.00617 ± 0.0025 s⁻¹. The “self-cleavage kobs at 2500 uM GlcN6P” value with glucosamine-6-phosphate [3] turned out to be 0.00864 ± 0.003 s⁻¹. In the data set with glucosamine-6-phosphate [4], the “self-cleavage kobs at 10000 uM GlcN6P” value came to 0.0175 ± 0.0071 s⁻¹.

For the variant AUAAAAGCGCCAGAACUACAGAAAUGUAGUUGACGAGGAGGAGGUUAAUCGAAUUUUCGGCGGAUUCCUCCAAA, the turnover number (kcat) with glucosamine-6-phosphate [1] came to 0.00545 ± 0.0009 s⁻¹. The KM with glucosamine-6-phosphate [7] stood at 1780 ± 480 µM. In addition, the “self-cleavage kobs at 40 uM GlcN6P” value with glucosamine-6-phosphate [5] came to 0.00013 ± 2.5e-05 s⁻¹. In addition, the “self-cleavage kobs at 640 uM GlcN6P” value with glucosamine-6-phosphate [2] is 0.00141 ± 0.00028 s⁻¹. In the data set with glucosamine-6-phosphate [3], the “self-cleavage kobs at 2500 uM GlcN6P” value was found to be 0.00244 ± 0.00069 s⁻¹. For the same variant, the “self-cleavage kobs at 10000 uM GlcN6P” value with glucosamine-6-phosphate [4] worked out at 0.00506 ± 0.00076 s⁻¹.

Regarding AUAAAUGCGCCAGAACUACAGAAAUGUAGUUGACGAGGAGGAGGUUUAUGGUAUUUUCGGGGGAUGCUUCCAAA, the kcat with glucosamine-6-phosphate [1] worked out at 3.87e-05 ± 1.1e-05 s⁻¹. Further, in the data set with glucosamine-6-phosphate [4], the “self-cleavage kobs at 10000 uM GlcN6P” value came out at 4.51e-05 ± 1.6e-05 s⁻¹.

In the case of AUAAACGCGCCCGAACUACAGAAAUGUAGUUGACGAGGAGGAGGUUUAUCGAAUUUGCGGCGGAUGCCUCCAAA, the kcat in the data set with glucosamine-6-phosphate [1] is 1.28e-05 ± 2.4e-06 s⁻¹. Also, in the data set with glucosamine-6-phosphate [4], the “self-cleavage kobs at 10000 uM GlcN6P” value was < 1e-05 s⁻¹.
